Measured values: US20210115121A1

Legend:
Assay in all cases: cell-based or functional assay
[1] = target: human Tau P301S from brain of P301S Tau transgenic mice (human) (UniProt P10636)
[2] = target: Tau from human Alzheimer's disease brain (isolated Tau PHF fibrils from Alzheimer's disease patients) (human) (UniProt P10636)
[3] = target: Tau from human progressive supranuclear palsy brain (human) (UniProt P10636)
[4] = target: Tau from human frontotemporal dementia brain (human) (UniProt P10636)
Tau from human frontotemporal dementia brain (human), sequence (P10636 other isoform, or with tags, fused parts or gaps limits assumed): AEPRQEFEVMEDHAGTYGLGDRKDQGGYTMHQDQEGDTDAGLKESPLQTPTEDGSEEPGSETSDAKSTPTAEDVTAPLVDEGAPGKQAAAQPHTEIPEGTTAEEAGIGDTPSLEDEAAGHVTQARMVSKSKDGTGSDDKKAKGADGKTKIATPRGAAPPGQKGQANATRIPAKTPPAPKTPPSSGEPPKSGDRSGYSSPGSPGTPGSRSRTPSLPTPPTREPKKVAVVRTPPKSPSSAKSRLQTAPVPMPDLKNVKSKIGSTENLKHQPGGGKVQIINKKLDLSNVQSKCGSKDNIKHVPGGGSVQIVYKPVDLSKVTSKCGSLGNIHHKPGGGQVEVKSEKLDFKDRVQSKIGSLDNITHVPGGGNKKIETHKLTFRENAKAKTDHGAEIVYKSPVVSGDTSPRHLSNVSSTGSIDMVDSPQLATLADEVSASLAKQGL

[5] = target: human Tau P301L from brain of P301L Tau transgenic mice (human) (UniProt P10636)
human Tau P301L from brain of P301L Tau transgenic mice (human), sequence (P10636 other isoform, or with tags, fused parts or gaps P301L P301L P301L P301L limits assumed): as the sequence (P10636 other isoform, or with tags, fused parts or gaps limits assumed) above, with P300L counted along it

HJ8.5 of WO 2014/008404 (antibody), sequence (VH): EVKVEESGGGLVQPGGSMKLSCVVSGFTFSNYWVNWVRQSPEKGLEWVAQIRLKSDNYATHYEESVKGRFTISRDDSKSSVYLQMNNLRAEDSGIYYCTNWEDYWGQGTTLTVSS
HJ8.5 of WO 2014/008404 (antibody), sequence (VL): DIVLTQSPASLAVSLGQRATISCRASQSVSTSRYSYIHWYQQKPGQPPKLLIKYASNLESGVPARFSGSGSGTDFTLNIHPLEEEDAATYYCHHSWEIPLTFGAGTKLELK
IPN002 of WO2014/028777A2 (antibody), sequence (VH): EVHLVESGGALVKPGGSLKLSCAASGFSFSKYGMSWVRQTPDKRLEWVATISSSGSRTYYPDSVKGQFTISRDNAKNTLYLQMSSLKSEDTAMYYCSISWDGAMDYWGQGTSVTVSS
IPN002 of WO2014/028777A2 (antibody), sequence (VL): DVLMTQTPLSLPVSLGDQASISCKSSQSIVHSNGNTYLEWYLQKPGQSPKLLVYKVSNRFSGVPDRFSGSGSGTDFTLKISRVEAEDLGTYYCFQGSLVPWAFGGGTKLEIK
human Tau P301S from brain of P301S Tau transgenic mice (human), sequence (P10636 other isoform, or with tags, fused parts or gaps P301S P301S P301S P301S): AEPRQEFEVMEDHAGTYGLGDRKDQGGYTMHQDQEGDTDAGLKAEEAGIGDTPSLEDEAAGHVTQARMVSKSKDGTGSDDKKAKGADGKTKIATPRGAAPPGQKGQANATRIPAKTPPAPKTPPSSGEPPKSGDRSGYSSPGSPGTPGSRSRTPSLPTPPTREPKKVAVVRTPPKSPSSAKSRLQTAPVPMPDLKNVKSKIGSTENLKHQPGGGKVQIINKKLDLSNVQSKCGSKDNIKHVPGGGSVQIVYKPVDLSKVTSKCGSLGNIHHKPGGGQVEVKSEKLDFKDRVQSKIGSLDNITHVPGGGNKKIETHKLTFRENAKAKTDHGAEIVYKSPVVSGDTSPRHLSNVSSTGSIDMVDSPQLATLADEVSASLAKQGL
Tau from human progressive supranuclear palsy brain (human), sequence (P10636 other isoform, or with tags, fused parts or gaps limits assumed): as the sequence (P10636 other isoform, or with tags, fused parts or gaps limits assumed) above
Tau from human Alzheimer's disease brain (isolated Tau PHF fibrils from Alzheimer's disease patients) (human), sequence (P10636 other isoform, or with tags, fused parts or gaps limits assumed): as above

Row | Substance | Imax (maximal efficacy at 300 nM, cellular Tau aggregation assay) [1] [%] | Imax (maximal efficacy at 300 nM, cellular Tau aggregation assay) [2] [%] | IC50 (cellular Tau aggregation assay) [3] [nM] | Imax (maximal efficacy at 300 nM, cellular Tau aggregation assay) [3] [%] | Imax (maximal efficacy at 300 nM, cellular Tau aggregation assay) [4] [%] | IC50 (cellular Tau aggregation assay) [5] [nM] | Imax (maximal efficacy at 300 nM, cellular Tau aggregation assay) [5] [%] | IC50 (cellular Tau aggregation assay) [1] [nM] | IC50 (cellular Tau aggregation assay) [2] [nM] | IC50 (cellular Tau aggregation assay) [4] [nM]
1 | HJ8.5 of WO 2014/008404 (antibody) | 43 | 46 | 73 | 79 | 67 |  |  |  |  | 
2 | IPN002 of WO2014/028777A2 (antibody) | 22 | 19 | 207 | 64 | 50 | 122 | 73 |  |  | 
3 | PT3 of WO2013/096380A2 (antibody) | 56 | 69 | 47 | 55 | 80 | 26 | 69 | 350 | 32 | 1
